Results: patent publication US20210347873A1 (SHANGHAI PHARMAEXPLORER, published 2021)

B1: c97A3C2H4 (antibody, V domains shown)
VH: EVKLVESGGGLVQPGGSLKLSCAASGFTFSTYTMSWVRQTPEKRLEWVAYISYGGGSTSYPDTVKGRFTISRDNAKNTLYLQMSSLKSEDTAIYYCTRHVTVVENSMDYWGQGTSVTVSS
VL: DILLTQSPDILSVSPGERVSFSCRASQSIGTSIHWYQQRTNGSPRLLIKYVSESFSGTPSRFSGSGSGTAFTLTINSVESEDIADYYCQQTHSWPWTFGGGTKLEIK
notes: also called chimeric antibody c97A3C2H4
B2: 97A3C2H4 (antibody, V domains shown)
VH: B1 VH
VL: B1 VL
notes: Mouse hybridoma antibody purified on Protein G
B3: c8E7D9C7F5 (antibody, V domains shown)
VH: QVQLQQSGVELARPGASVKLSCKASGYTFTSYGISWVKQRTGQALEWIGEIYPRSGNTYYNEKFKGKATLTADKSSSTAYMELRSLTSEDSAVYFCARSGPITTLVATDYGMDYWGQGTSVTVSS
VL: DIVLTQSPASLAVSLGQRATISCRASKSVSTSSYSYMHWYQQKPGQPPKLLIKFASNLESGVPARFSGSGSGTDFTLNIHPVEEEDAATYYCQHSREFPYTFGGGTKLEIK
notes: also called chimeric antibody c8E7D9C7F5
B4: 111D10D6G3 (antibody, V domains shown)
VH: QVQLQQPGAELVKPGASVKMSCKASGYTFTRHWITWVKQRPGQGLEWIGDIFPGSGSINYNEKFKSEATLTVEKSSSTAYMQLSSLTSEDSAVYYCARGDVDVWGTGTTVTVSS
VL: DIQMTQSPSSLSASLGERVSLTCRASQEIRGYLSWLQQKPNGTIKRLIYAASTLDSGVPKRFSATRSGSDFSLTISSLESEDFADYYCLQYASYPFTFGSGTKLEIK
notes: as for B2

Columns and labels:
[1] = molecular target: cynomolgus BLyS (full length, arginine to histidine at position 132) on CHO-K1 cells (cynomolgus); assay: flow cytometry, CHO-K1 cynoBLyS cells, antibody 0 nM
[2] = molecular target: cynomolgus BLyS (full length, arginine to histidine at position 132) on CHO-K1 cells (cynomolgus); assay: flow cytometry, CHO-K1 cynoBLyS cells, antibody 2.67 nM
[3] = molecular target: cynomolgus BLyS (full length, arginine to histidine at position 132) on CHO-K1 cells (cynomolgus); assay: flow cytometry, CHO-K1 cynoBLyS cells, antibody 0.0213 nM
[4] = molecular target: cynomolgus BLyS (full length, arginine to histidine at position 132) on CHO-K1 cells (cynomolgus); assay: flow cytometry, CHO-K1 cynoBLyS cells, antibody 0.00427 nM
[5] = molecular target: biotinylated hBLyS-ECD (human) (UniProt Q9Y275); assay: blocking ELISA: biotinylated hBLyS-ECD on coated BAFF R, antibody 20 nM
Target sequence in this assay (Q9Y275 134-285): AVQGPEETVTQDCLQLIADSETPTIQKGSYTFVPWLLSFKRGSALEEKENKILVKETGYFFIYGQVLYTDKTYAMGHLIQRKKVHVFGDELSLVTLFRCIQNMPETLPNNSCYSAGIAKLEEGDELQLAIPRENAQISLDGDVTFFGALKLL

[6] = molecular target: biotinylated hBLyS-ECD (human) (UniProt Q9Y275); assay: ELISA, biotinylated hBLyS-ECD captured on streptavidin; antibody 2.67 nM
[7] = molecular target: biotinylated hBLyS-ECD (human) (UniProt Q9Y275); assay: ELISA, biotinylated hBLyS-ECD captured on streptavidin; antibody 66.7 nM
Target sequence in this assay (Q9Y275 134-285): as above

[8] = molecular target: biotinylated hBLyS-ECD (human) (UniProt Q9Y275); assay: ELISA, biotinylated hBLyS-ECD captured on streptavidin; antibody 0.107 nM
Target sequence in this assay (Q9Y275 134-285): as above

[9] = molecular target: extracellular domain of human BLyS protein (hBLyS-ECD), His-tagged, Ala134-Leu285 (human, UniProt Q9Y275 134-285); assay: cell-based or functional assay
[10] = molecular target: T1, biotinylated hBLyS-ECD (human, UniProt Q9Y275 134-285, biotinylated with Biotin-X-X-NHS (molar ratio 7:1); sites not stated); assay: ELISA on captured biotinylated hBLyS-ECD; antibody 66.7 nM
T1 construct: also called biotinylated immunogen; biotinylated hBLvS-ECD

[11] = molecular target: T1, biotinylated hBLyS-ECD; assay: ELISA on captured biotinylated hBLyS-ECD; antibody 0.107 nM
[12] = molecular target: T1, biotinylated hBLyS-ECD; assay: ELISA on captured biotinylated hBLyS-ECD; antibody 0.534 nM
[13] = molecular target: T1, biotinylated hBLyS-ECD; assay: ELISA on captured biotinylated hBLyS-ECD; antibody 0.0213 nM
[14] = molecular target: T1, biotinylated hBLyS-ECD; assay: as above; remark: listed apart in the source
[15] = molecular target: T1, biotinylated hBLyS-ECD; assay: ELISA on captured biotinylated hBLyS-ECD; antibody 0.00427 nM
[16] = molecular target: T1, biotinylated hBLyS-ECD; assay: BAFF R-coated ELISA, biotinylated hBLyS-ECD bound in presence of antibody 20 nM
[17] = molecular target: T1, biotinylated hBLyS-ECD; assay: BAFF R-coated ELISA, biotinylated hBLyS-ECD bound in presence of antibody 0.0064 nM
[18] = molecular target: T2, biotinylated hBLyS-ECD (human, UniProt Q9Y275 134-285, biotinylated with Biotin-X-X-NHS (molar ratio 7:1), sites not stated); assay: ELISA: biotinylated hBLyS-ECD captured on streptavidin, antibody titrated, HRP secondary antibody [label printed at the top of D00004]
T2 construct: The hBLyS-ECD of Embodiment 1 after biotinylation (Embodiment 2); also called biotinylated immunogen; BLyS protein; not shown: His tag of the pCPC vector
Description: Streptavidin was first diluted to a final concentration of 1.0 μg/mL with PBS, and then 50 μL of diluted streptavidin per well was aliquoted into 96-well ELISA plate, which was subsequently sealed with plastic film and incubated at 4° C. overnight. On the next day the plate was washed four times with the plate washing buffer [PBS buffer containing 0.05% (v/v) Tween20] and added with the blocking solution [PBS buffer containing 0.05% (v/v) Tween20 and 1% (w/w) BSA] and blocked for 2 hours at 37° C. The blocking solution was removed, the biotinylated hBLyS-ECD prepared in Embodiment 2 was diluted with PBS to a final concentration of 50 ng/mL and then aliquoted into the 96-well ELISA plate at 50 μL per well and incubated for 1 hour at 37° C. After rinsing the plate four times with the plate washing buffer [PBS buffer containing 0.05% (v/v) Tween20], 100 μl of the purified lead antibody harvested in Embodiment 1 and 2 was pipetted into each well. After incubation for 1 hour at 37° C., the plate was rinsed four times with the plate washing buffer [PBS buffer containing 0.05% (v/v) Tween20]. HRP-labeled (horseradish peroxidase) secondary antibody (purchased from Sigma) was added in and incubated at 37° C. for 1 hour. The plate was then rinsed four times with the plate washing buffer [PBS buffer containing 0.05% (v/v) Tween20]. 100 μL of TMB substrate was aliquoted into each well and after incubation for 5 minutes at room temperature, 100 μL of stop solution (1.0 N HCl) was aliquoted into each well. A₄₅₀ₙₘ values were read via an ELISA plate reader (SpectraMax M5e purchased from Molecular Devices) and the results were shown in FIGS. 5A-5B and Table 10.

T1 sequence (Q9Y275 134-285): as above
Sequence of extracellular domain of human BLyS protein (hBLyS-ECD), His-tagged, Ala134-Leu285 (Q9Y275 134-285): as above
Sequence of cynomolgus BLyS (full length, arginine to histidine at position 132) on CHO-K1 cells (cynomolgus) (Q9Y275 other isoform, or with tags, fused parts or gaps limits assumed): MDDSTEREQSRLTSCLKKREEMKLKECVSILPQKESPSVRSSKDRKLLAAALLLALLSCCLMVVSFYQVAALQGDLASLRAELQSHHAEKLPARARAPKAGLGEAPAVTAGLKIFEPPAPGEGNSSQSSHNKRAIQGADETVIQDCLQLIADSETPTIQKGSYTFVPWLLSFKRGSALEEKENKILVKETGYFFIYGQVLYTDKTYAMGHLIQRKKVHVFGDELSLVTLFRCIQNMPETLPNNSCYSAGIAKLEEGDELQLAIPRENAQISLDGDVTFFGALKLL
T2 sequence (Q9Y275 134-285): as the sequence (Q9Y275 134-285) above

Row | Molecule | MFI [1] | MFI [2] | MFI [3] | MFI [4] | OD450 nm [5] | OD450 nm [6] | OD450 nm [7] | OD450 nm [8] | OD450 nm (as headed), mouse B lymphocyte proliferation; antibody 0 nM [9] | OD450 nm (as headed), mouse B lymphocyte proliferation; antibody 0.000256 nM [9] | OD450 nm (as headed), mouse B lymphocyte proliferation; antibody 0.00128 nM [9] | OD450 nm (as headed), mouse B lymphocyte proliferation; antibody 0.0064 nM [9] | OD450 nm (as headed), mouse B lymphocyte proliferation; antibody 0.032 nM [9] | OD450 nm (as headed), mouse B lymphocyte proliferation; antibody 0.16 nM [9] | OD450 nm (as headed), mouse B lymphocyte proliferation; antibody 0.8 nM [9] | OD450 nm (as headed), mouse B lymphocyte proliferation; antibody 4 nM [9] | OD450 nm (as headed), mouse B lymphocyte proliferation; antibody 20 nM [9] | OD450 nm (as headed), mouse B lymphocyte proliferation; antibody 100 nM [9] | OD450 nm [10] | OD450 nm [11] | also measured
1 | mIgG Control (antibody) | 19.8 MFI | 21.2 MFI | 19.8 MFI | 20.4 MFI | 1.36 OD450 nm | 0.0659 | 0.0708 | 0.0562 |  |  |  |  |  |  |  |  |  |  |  |  | 
2 | hIgG Control (antibody) | 20.7 MFI | 22.7 MFI | 22.4 MFI | 22 MFI | 1.06 OD450 nm | 0.0956 | 0.148 | 0.0905 |  |  |  |  |  |  |  |  |  |  |  |  | 
3 | B1 |  |  |  |  |  |  |  |  | 4440 | 5020 | 4870 | 5280 | 4450 | 3740 | 1460 | 578 | 424 | 444 | 2.41 OD450 nm | 1.19 OD450 nm | OD450 nm [12]: 1.91 OD450 nm; OD450 nm [13]: 0.936 OD450 nm; OD450 nm [14]: 0.374 OD450 nm; OD450 nm [15]: 0.194 OD450 nm; OD450 nm [16]: 0.717 OD450 nm; OD450 nm [17]: 1.96 OD450 nm
4 | B2 |  |  |  |  |  |  |  |  |  |  |  |  |  |  |  |  |  |  |  |  | EC50 (read off the curve) [18]: ~200 pM
5 | B3 |  |  |  |  |  |  |  |  | 4750 | 4970 | 5150 | 5280 | 4620 | 4110 | 2070 | 488 | 367 | 345 | 2.32 OD450 nm | 1.28 OD450 nm | OD450 nm [12]: 1.97 OD450 nm; OD450 nm [13]: 0.574 OD450 nm; OD450 nm [14]: 0.508 OD450 nm; OD450 nm [15]: 0.198 OD450 nm; OD450 nm [16]: 0.66 OD450 nm; OD450 nm [17]: 2.01 OD450 nm
6 | B4 |  |  |  |  |  |  |  |  |  |  |  |  |  |  |  |  |  |  |  |  | EC50 (read off the curve) [18]: ~200 pM
